Measurements: patent publication US6998260 (PROMEGA, dated 2006)

B1: recombinant human β-II tryptase (from pPIC9-HumTryN102K, expressed in Pichia pastoris) (enzyme)
chain: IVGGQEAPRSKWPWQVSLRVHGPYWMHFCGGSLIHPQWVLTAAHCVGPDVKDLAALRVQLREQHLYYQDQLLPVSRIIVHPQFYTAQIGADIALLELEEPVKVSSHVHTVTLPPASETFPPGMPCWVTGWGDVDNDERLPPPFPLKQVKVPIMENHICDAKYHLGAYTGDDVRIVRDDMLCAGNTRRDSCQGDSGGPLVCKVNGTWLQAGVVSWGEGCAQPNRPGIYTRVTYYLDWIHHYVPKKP
modifications: N-glycosylated at one site
notes: Homotetramer by gel filtration; also called rh β II; R βII tryptase
B2: recombinant human β-I tryptase (from pPIC9-HumTry, expressed in Pichia pastoris) (enzyme)
chain: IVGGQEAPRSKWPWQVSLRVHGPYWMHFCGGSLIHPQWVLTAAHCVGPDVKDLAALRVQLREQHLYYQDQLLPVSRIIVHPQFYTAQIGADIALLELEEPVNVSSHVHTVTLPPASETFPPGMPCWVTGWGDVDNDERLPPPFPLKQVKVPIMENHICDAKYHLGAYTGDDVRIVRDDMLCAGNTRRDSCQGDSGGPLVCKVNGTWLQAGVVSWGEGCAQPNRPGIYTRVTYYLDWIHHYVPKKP
modifications: N-glycosylated at two sites (N102 and N204, as the filing says)
notes: Secreted as a mature monomer that self-assembles into a homotetramer; On the Western blots (SDS-PAGE) it stood as denatured subunits; also called rh β I; R βI tryptase
B3: human β-I tryptase active site mutant S194A (enzyme)
chain: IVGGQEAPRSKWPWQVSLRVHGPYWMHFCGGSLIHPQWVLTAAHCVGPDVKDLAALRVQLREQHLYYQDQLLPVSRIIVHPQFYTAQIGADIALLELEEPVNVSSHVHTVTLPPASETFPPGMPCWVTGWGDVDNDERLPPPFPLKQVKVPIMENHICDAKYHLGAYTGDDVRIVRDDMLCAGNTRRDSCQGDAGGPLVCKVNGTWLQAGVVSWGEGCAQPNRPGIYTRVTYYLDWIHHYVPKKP
notes: also called β-I S194A active site mutant; S194A β-I tryptase active site mutant

Biological target: the molecule itself
Assay: gel filtration; self-association of subunits into a homotetramer

Binding result, binds:
B1
B2
B3
